Residue numbers refer to the chain shown, from its start. In names and notes the source's numbering stands.
T1: ORC1-180-240-HIS6 wild type (human, UniProt Q13415 180-240)
T1 sequence (looked up): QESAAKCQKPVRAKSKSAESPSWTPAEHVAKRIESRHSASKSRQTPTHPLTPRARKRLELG

T2: MBP-ORC1 R105Q (human, UniProt Q13415 1-861, R105Q)
T2 sequence (looked up): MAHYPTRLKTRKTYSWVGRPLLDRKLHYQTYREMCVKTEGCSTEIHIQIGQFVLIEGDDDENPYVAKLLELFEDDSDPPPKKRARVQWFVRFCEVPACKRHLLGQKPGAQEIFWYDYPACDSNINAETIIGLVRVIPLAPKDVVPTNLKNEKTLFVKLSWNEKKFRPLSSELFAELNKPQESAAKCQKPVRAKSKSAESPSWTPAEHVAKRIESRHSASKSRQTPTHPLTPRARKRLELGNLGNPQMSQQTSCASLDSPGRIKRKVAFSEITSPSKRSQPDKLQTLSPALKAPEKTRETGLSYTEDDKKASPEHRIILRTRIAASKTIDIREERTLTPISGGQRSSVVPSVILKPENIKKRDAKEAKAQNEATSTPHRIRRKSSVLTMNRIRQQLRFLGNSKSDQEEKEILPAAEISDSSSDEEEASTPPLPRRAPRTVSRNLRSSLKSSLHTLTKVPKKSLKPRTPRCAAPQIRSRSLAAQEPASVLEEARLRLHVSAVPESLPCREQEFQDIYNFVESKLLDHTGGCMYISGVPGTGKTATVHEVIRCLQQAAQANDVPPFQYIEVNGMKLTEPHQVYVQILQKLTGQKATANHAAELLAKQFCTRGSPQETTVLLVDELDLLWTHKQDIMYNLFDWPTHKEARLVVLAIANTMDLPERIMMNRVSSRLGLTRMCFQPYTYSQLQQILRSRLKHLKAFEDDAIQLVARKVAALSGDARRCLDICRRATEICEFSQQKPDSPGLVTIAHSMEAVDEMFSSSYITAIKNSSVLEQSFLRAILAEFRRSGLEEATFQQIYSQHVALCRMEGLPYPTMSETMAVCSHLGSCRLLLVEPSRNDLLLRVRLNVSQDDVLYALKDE

T3: MBP-ORC1-PSM123 (Phosphorylation Site Mutant, S258A, S273A and T375A) (human, UniProt Q13415 1-861, S258A | S273A | T375A)
T3 sequence (looked up): T2 sequence (looked up) with Q105R, S258A, S273A, T375A

T4: MBP-ORC2 (human, UniProt Q13416 1-577)
T4 sequence (looked up): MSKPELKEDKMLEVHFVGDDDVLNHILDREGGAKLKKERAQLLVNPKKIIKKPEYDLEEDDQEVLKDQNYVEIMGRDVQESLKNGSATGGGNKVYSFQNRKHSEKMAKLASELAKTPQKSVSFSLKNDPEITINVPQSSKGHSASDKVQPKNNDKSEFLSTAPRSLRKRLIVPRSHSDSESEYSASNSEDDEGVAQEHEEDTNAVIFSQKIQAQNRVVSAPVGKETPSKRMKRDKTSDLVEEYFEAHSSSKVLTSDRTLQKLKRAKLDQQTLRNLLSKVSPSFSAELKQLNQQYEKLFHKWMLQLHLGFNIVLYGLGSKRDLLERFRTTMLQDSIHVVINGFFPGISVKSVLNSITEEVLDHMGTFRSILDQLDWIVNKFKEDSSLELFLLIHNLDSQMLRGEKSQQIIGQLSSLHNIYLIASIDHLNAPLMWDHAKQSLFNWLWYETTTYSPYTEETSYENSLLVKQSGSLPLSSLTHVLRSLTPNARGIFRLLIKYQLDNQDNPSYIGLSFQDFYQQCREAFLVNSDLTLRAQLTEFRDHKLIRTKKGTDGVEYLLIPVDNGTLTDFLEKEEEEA

T5: MBP-ORC1 wild type, full length (human, UniProt Q13415 1-861)
T5 sequence (looked up): T2 sequence (looked up) with Q105R

T6: MBP-GFP-ORC1-HIS6 (human, UniProt Q13415 1-861)
T6 sequence (looked up): T2 sequence (looked up) with Q105R

B1: MBP-ORC1-350-400 wild type (domain or fragment, human, UniProt Q13415 350-400, looked up)
chain: SVILKPENIKKRDAKEAKAQNEATSTPHRIRRKSSVLTMNRIRQQLRFLGN
B2: GST-CDC6 wild type, full length (natural protein, human, UniProt Q99741 1-560, looked up)
chain: MPQTRSQAQATISFPKRKLSRALNKAKNSSDAKLEPTNVQTVTCSPRVKALPLSPRKRLGDDNLCNTPHLPPCSPPKQGKKENGPPHSHTLKGRRLVFDNQLTIKSPSKRELAKVHQNKILSSVRKSQEITTNSEQRCPLKKESACVRLFKQEGTCYQQAKLVLNTAVPDRLPAREREMDVIRNFLREHICGKKAGSLYLSGAPGTGKTACLSRILQDLKKELKGFKTIMLNCMSLRTAQAVFPAIAQEICQEEVSRPAGKDMMRKLEKHMTAEKGPMIVLVLDEMDQLDSKGQDVLYTLFEWPWLSNSHLVLIGIANTLDLTDRILPRLQAREKCKPQLLNFPPYTRNQIVTILQDRLNQVSRDQVLDNAAVQFCARKVSAVSGDVRKALDVCRRAIEIVESDVKSQTILKPLSECKSPSEPLIPKRVGLIHISQVISEVDGNRMTLSQEGAQDSFPLQQKILVCSLMLLIRQLKIKEVTLGKLYEAYSKVCRKQQVAAVDQSECLSLSGLLEARGILGLKRNKETRLTKVFFKIEEKEIEHALKDKALIGNILATGLP
B3: MBP-CDC6-HIS6 (natural protein, human, UniProt Q99741 1-560, looked up)
chain: B2 chain
B4: GST-CDC6-HIS6 (natural protein, human, UniProt Q99741 1-560, looked up)
chain: B2 chain
B5: MBP-ORC1 100–250 wild type (domain or fragment, human, UniProt Q13415 100-250, looked up)
chain: RHLLGRKPGAQEIFWYDYPACDSNINAETIIGLVRVIPLAPKDVVPTNLKNEKTLFVKLSWNEKKFRPLSSELFAELNKPQESAAKCQKPVRAKSKSAESPSWTPAEHVAKRIESRHSASKSRQTPTHPLTPRARKRLELGNLGNPQMSQQ
B6: MBP-ORC1 100–250 L237A (domain or fragment, human, UniProt Q13415 100-250, looked up)
chain: B5 chain with L138A
B7: MBP-ORC1 180–240 (domain or fragment, human, UniProt Q13415 180-240, looked up)
chain: T1 sequence (looked up)

Assays:
Test in all cases: pull-down
[1] = target: T1, ORC1-180-240-HIS6 wild type
MBP-ORC1 R105Q = target: T2, MBP-ORC1 R105Q
[2] = target: T3, MBP-ORC1-PSM123 (Phosphorylation Site …)
MBP-ORC2 = target: T4, MBP-ORC2
[3] = target: T5, MBP-ORC1 wild type, full length
MBP-GFP-ORC1-HIS6 = target: T6, MBP-GFP-ORC1-HIS6
[4] = target: B2

Binder: B1
binding result [1]: binds

Binder: B2
binding result (MBP-ORC1 R105Q): binds
binding result [2]: binds
binding result (MBP-ORC2): binds
binding result [3]: binds

Binder: B3
binding result (MBP-GFP-ORC1-HIS6): binds

Binder: B4
binding result (MBP-GFP-ORC1-HIS6): binds

Binder: B5
binding result [4]: binds

Binder: B6
binding result [4]: binds

Binder: B7
binding result [4]: binds
